{
  "source": "patent US20230057602A1",
  "about": "(Bristol-Myers Squibb, published 2023)",
  "binders": {"B1": {"name": "CC-93269 (42-TCBcv) (bispecific antibody, human IgG1, kappa, L234A L235A)", "heavy 1": "not shown", "heavy 2": "EVQLLESGGGLVQPGGSLRLSCAASGFTFSDNAMGWVRQAPGKGLEWVSAISGPGSSTYYADSVKGRFTISRDNSKNTLYLQMNSLRAEDTAVYYCAKVLGWFDYWGQGTLVTVSSASTKGPSVFPLAPSSKSTSGGTAALGCLVEDYFPEPVTVSWNSGALTSGVHTFPAVLQSSGLYSLSSVVTVPSSSLGTQTYICNVNHKPSNTKVDEKVEPKSCDKTHTCPPCPAPEAAGGPSVFLFPPKPKDTLMISRTPEVTCVVVDVSHEDPEVKFNWYVDGVEVHNAKTKPREEQYNSTYRVVSVLTVLHQDWLNGKEYKCKVSNKALGAPIEKTISKAKGQPREPQVCTLPPSRDELTKNQVSLSCAVKGFYPSDIAVEWESNGQPENNYKTTPPVLDSDGSFFLVSKLTVDKSRWQQGNVFSCSVMHEALHNHYTQKSLSLSPGK", "light 1": "EIVLTQSPGTLSLSPGERATLSCRASQSVSDEYLSWYQQKPGQAPRLLIHSASTRATGIPDRFSGSGSGTDFTLAISRLEPEDFAVYYCQQYGYPPDFTFGQGTKVEIKRTVAAPSVFIFPPSDRKLKSGTASVVCLLNNFYPREAKVQWKVDNALQSGNSQESVTEQDSKDSTYSLSSTLTLSKADYEKHKVYACEVTHQGLSSPVTKSFNRGEC", "light 2": "EVQLLESGGGLVQPGGSLRLSCAASGFTFSTYAMNWVRQAPGKGLEWVSRIRSKYNNYATYYADSVKGRFTISRDDSKNTLYLQMNSLRAEDTAVYYCVRHGNFGNSYVSWFAYWGQGTLVTVSSASVAAPSVFIFPPSDEQLKSGTASVVCLLNNFYPREAKVQWKVDNALQSGNSQESVTEQDSKDSTYSLSSTLTLSKADYEKHKVYACEVTHQGLSSPVTKSFNRGEC"}},
  "target": "T1, human B cell maturation antigen (BCMA) (human, UniProt Q02223 1-184)",
  "T1 sequence (looked up)": "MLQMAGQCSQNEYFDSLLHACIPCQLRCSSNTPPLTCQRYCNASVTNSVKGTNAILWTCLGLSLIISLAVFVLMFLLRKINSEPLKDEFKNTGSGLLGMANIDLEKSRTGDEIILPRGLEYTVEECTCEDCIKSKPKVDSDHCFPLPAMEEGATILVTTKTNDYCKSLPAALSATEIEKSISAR",
  "experiment": "cell-based or functional assay",
  "data": [
    {"binder": "B1", "values": [
      {"measurement": "IC50 (ng/ml) of redirected lysis, H929 cells co-cultured with healthy donor T cells (E:T 1:1, 72 h), DMSO control, mean of 3 donors", "result": 3.42, "unit": "ng/mL"},
      {"measurement": "IC50 (ng/ml) of redirected lysis, H929 cells co-cultured with healthy donor T cells (E:T 1:1, 72 h), with 1 µM dexamethasone, mean of 3 donors", "result": 6.52, "unit": "ng/mL"},
      {"measurement": "IC50 (ng/ml) of redirected lysis, KMS12-PE cells co-cultured with healthy donor T cells (E:T 1:1, 72 h), DMSO control, mean of 3 donors", "result": 0.2, "unit": "ng/mL"},
      {"measurement": "IC50 (ng/ml) of redirected lysis, KMS12-PE cells co-cultured with healthy donor T cells (E:T 1:1, 72 h), with 1 µM dexamethasone, mean of 3 donors", "result": 3.61, "unit": "ng/mL"},
      {"measurement": "IC50 (ng/ml) of redirected lysis, MM1S cells co-cultured with healthy donor T cells (E:T 1:1, 72 h), DMSO control, mean of 3 donors", "result": 0.21, "unit": "ng/mL"},
      {"measurement": "IC50 (ng/ml) of redirected lysis, MM1S cells co-cultured with healthy donor T cells (E:T 1:1, 72 h), with 1 µM dexamethasone, mean of 3 donors", "result": 3.31, "unit": "ng/mL"},
      {"measurement": "IC50 (ng/ml) of redirected lysis, SKMM2 cells co-cultured with healthy donor T cells (E:T 1:1, 72 h), DMSO control, mean of 3 donors", "result": 0.09, "unit": "ng/mL"},
      {"measurement": "IC50 (ng/ml) of redirected lysis, SKMM2 cells co-cultured with healthy donor T cells (E:T 1:1, 72 h), with 1 µM dexamethasone, mean of 3 donors", "result": 0.34, "unit": "ng/mL"}
    ]}
  ]
}
